According to US20030125257A1, “Assay for identifying beta secretase inhibitors” (priority 2001, published 2003):
Square brackets hold non-standard residues; d marks the D form. Ends that are not written are not given here. Sta = CC(C)C[C@H](N)[C@@H](O)CC(=O)O

Target: T1, purified BACE (Homo sapiens, UniProt P56817)
T1 construct: Pooled fractions containing full-length BACE were passed over a 5 ml HiTrap Q column; 6xHis (C); made in house; host or cells: Sf9 insect cells (recombinant baculovirus, pFASTBAC1)
Assay: Competitive radioligand binding assay (RLBA)
Conditions: binding to purified BACE as in example 6, FIG. 4
Protocol: 96 well microplates (Optiplate Packard) are coated with purified BACE protein using a concentration of 1 μg/ml in 30 mM sodium citrate buffer adjusted to pH 5.5. The coating is achieved by incubation of 100 μl/well for 1-3 days at 4° C. The plate is then washed with 2×300 μl/well of 10 mM citrate pH 4.1. To each well 100 μl binding buffer (30 mM citrate, 100 mM NaCl, 0.1% BSA, pH 4.1) is dispensed. The test compound (peptide H-4848 in FIGS. 4A and B) is added in 5 μl from a DMSO stock solution or appropriate dilutions. To this the tracer (tritiated Compound A) is added in 10 μl/well from a 10 μCi/ml stock solution in binding buffer. After incubation for 1.5-2 hours in a humid chamber at ambient temperature the plate is washed with 2×300 μl/well water and flipped on a dry towel. Following the addition of 50 μl/well MicroScint20 (Packard) the plate is sealed and vibrated for 5 seconds. The bound radioactivity is counted on a Topcount (Packard). Total binding is typically between 2000 and 10000 cpm/well depending mainly on the purity and concentration of the BACE protein. Non-specific binding as assessed by competition with >1 μM peptide H-4848 (Bachem #H-4848) is typically between 30 and 300 cpm/well. The IC-50 values are calculated by Microsoft Excel FIT.

T1 sequence (P56817 46-501): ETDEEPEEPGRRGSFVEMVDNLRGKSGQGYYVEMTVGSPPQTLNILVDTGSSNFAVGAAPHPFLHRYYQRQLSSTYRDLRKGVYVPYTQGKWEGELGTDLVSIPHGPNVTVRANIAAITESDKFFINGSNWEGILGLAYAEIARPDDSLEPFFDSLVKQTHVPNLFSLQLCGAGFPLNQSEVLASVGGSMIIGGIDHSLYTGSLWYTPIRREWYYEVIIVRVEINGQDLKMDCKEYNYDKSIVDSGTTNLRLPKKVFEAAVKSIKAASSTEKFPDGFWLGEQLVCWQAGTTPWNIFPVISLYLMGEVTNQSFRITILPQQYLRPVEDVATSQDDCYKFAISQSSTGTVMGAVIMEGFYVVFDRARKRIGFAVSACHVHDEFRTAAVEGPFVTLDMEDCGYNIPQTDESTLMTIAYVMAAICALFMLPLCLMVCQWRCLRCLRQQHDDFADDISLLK

**Q.** “tritiated compound A: Compound A with iodine exchanged for 3H by reduction on palladium; tracer of the binding assay (EVN[Sta]VAE[Tyr(3H2)]-NH2)” was tested. Which “equilibrium binding isotherm (Scatchart analysis)” value did it give?
**A.** Its value is “single binding site isotherm”.
